Measurements published in patent US20150166606A1 (RA PHARMACEUTICALS, published 2015).
Numbered stars: 1 amine (or outer) side, 2 acyl side, 3 side chain; on linkers, the order of the positions; unused ones are H or OH. Bridge positions count the residues as written; N and C are the ends. Square brackets hold non-standard residues; d marks the D form. Ends that are not written are not given here. * marks the point of attachment. mXylyl = xylyl linker from dibromoxylene joining the two cysteines; Phe(3-CH2NH2) = O=C([C@H](Cc1cccc(CN[*:3])c1)N[*:1])[*:2]; Ala(1H-tetrazol-5-yl) = N[C@@H](Cc1nnn[nH]1)C(=O)O; des‑NH2 = missing amino-terminal amine group; Phe(4-CH2NH2) = NCc1ccc(C[C@H](N)C(=O)O)cc1; hexyltetrazolyl‑mXylyl = not defined here; η‑ω‑MeR = eta-omega methylated arginine; pXylylene = c1cc(C[*:2])ccc1C[*:1]; NMeE = CN[C@@H](CCC(=O)O)C(=O)O; Gly(cPr) = N[C@H](C(=O)O)C1CC1; dPhg = N[C@@H](C(=O)O)c1ccccc1; Chg = N[C@H](C(=O)O)C1CCCCC1; Pen = CC(C)(S)[C@H](N)C(=O)O; Phg = N[C@H](C(=O)O)c1ccccc1; Tle = CC(C)(C)[C@H](N)C(=O)O; hLys = NCCCCC[C@H](N)C(=O)O; oXylyl = ortho-xylyl linker; mLutidine = meta-lutidine; Heptanoyl = CCCCCCC(=O)*; Nle = CCCC[C@H](N)C(=O)O; Nva = CCC[C@H](N)C(=O)O; Mpa = O=C(O)CCS; Sar = CNCC(=O)O

B1: R2027 (peptide)
peptide: MC[NMeE]ESICRV-NH2
modifications: linker 2-7 via mXylyl; not fully specified; printed as [mXylyl(2,6)]MC-nMeE-ESICRV-NH2
B2: R2061 (peptide)
peptide: Ac-CAS[Phg]CR[Tle]-NH2
modifications: linker 1-5 via mXylyl; not fully specified (residue 2); printed as [mXylyl(1,5)]Ac-C-a-S-Phg-CR-Tbg-NH2
B3: R2067 (peptide)
peptide: Heptanoyl-CAS[Phg]CR[Tle]-NH2
modifications: linker 1-5 via mXylyl; not fully specified (residue 2); printed as [mXylyl(1,5)]Heptanoyl-C-a-S-Phg-C-R-Tbg-NH2
B4: R2062 (peptide)
peptide: Ac-CAS[Gly(cPr)]CRV-NH2
modifications: linker 1-5 via mXylyl; not fully specified (residue 2); printed as [mXylyl(1,5)]Ac-C-a-S-Cppg-CRV-NH2
B5: R2028 (peptide)
peptide: MCESICRV-NH2
modifications: linker 2-6 via hexyltetrazolyl‑mXylyl; reading uncertain; also: printed as [hexyltetrazolyl-mXylyl(2,6)]MCESICRV-NH2
B6: R2063 (peptide)
peptide: Ac-CASVCRV-NH2
modifications: linker 1-5 via mXylyl; not fully specified (residue 2); printed as [mXylyl(1,5)]Ac-C-a-SVCRV-NH2
B7: R2066 (peptide)
peptide: Heptanoyl-CAS[dPhg]CR[Tle]-NH2
modifications: linker 1-5 via mXylyl; not fully specified (residue 2); printed as [mXylyl(1,5)]Heptanoyl-C-a-S-(D)Phg-C-R-Tbg-NH2
B8: R2049 (peptide)
peptide: {des‑NH2}-CICRV-NH2
modifications: linker 1-3 via mXylyl; not fully specified (residue 1); printed as [mXylyl(1,3)](des-NH2)C-ICRV-NH2

Target: Activated human plasma kallikrein (Enzyme Research Laboratories, HPKa 1303) (human, UniProt P03952 20-638)
Assay: cell-based or functional assay

Sequence of Activated human plasma kallikrein (Enzyme Research Laboratories, HPKa 1303) (P03952 20-638 limits assumed): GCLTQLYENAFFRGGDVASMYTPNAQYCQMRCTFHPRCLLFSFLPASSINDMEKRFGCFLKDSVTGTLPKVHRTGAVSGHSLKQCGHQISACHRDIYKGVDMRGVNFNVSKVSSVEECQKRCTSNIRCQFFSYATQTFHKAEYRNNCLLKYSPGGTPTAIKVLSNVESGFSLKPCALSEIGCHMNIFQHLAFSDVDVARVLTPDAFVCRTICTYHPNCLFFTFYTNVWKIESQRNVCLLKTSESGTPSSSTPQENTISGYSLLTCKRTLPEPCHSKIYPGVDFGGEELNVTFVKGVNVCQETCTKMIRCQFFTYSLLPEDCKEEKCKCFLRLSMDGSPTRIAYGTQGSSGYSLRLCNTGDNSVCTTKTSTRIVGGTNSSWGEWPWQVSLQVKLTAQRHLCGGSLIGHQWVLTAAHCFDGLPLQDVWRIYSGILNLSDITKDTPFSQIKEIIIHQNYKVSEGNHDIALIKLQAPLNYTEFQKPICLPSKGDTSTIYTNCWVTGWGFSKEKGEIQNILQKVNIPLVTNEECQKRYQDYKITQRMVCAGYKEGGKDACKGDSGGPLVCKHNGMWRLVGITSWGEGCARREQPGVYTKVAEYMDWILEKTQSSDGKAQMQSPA

Binder | Avg. IC50 [nM]
CAS[Phg]CR[Tle]-NH2 (linker 1-5 via mXylyl) [R2039] | 11.9
[Nva]CESICRF-NH2 (linker 2-6 via mXylyl) [R2035] | 7200
MCESICRV-NH2 (linker 2-6 via mLutidine) [R2044] | 645
Ac-CSICRV-NH2 (linker 1-4 via mXylyl) [R2037] | 410
MCESICR-NH2 (linker 2-6 via mXylyl) [R2015] | 16500
[Nva]CES[Phg]CR[Tle]-NH2 (linker 2-6 via mXylyl) [R2013] | 6.8
[Nva][Pen]ESICRV-NH2 (linker 2-6 via mXylyl) [R2031] | 1460
MC[Ala(1H-tetrazol-5-yl)]SICRV-NH2 (linker 2-6 via mXylyl) [R2020] | 13
[Mpa][code a]S[Phg]CR[Tle]-NH2 (linker 1-5 via mXylyl) [R2064] | 14.9
MCESACRV-NH2 (linker 2-6 via mXylyl) [R2017] | 2140
Ac-CA[Sar][Phg]CR[Tle]-NH2 (linker 1-5 via mXylyl) [R2052] | 74.2
MCESICRV-NH2 (linker 2-6 via pXylylene) [R2043] | 617
B1 | 990
B2 | 12.7
MCESICRV-NH2 (linker 2-6 via 3‑methoxy‑mXylyl) [R2102] | 39.7
MCEAICRV-NH2 (linker 2-6 via mXylyl) [R2018] | 37.3
MCESICRVN-NH2 (linker 2-6 via mXylyl) [R2014] | 37.5
Ac-CESICRVLRYSE-NH2 (linker 1-5 via mXylyl) [R2057] | 0.943
[Nva]CESIC[hLys]V-NH2 (linker 2-6 via mXylyl) [R2029] | 8840
MCESICRV-NH2 (linker 2-6 via oXylyl) [R2042] | 3190
Ac-C[dA]S[dPhg]CR[Tle]-NH2 (linker 1-5 via mXylyl) [R2060] | 959
Ac-CESICRVL-NH2 (linker 1-5 via mXylyl) [R2045] | 187
MCESICKV-NH2 (linker 2-6 via mXylyl) [R2040] | 733
Ac-C[Nle]S[Phg]CR[Tle]-NH2 (linker 1-5 via mXylyl) [R2065] | 6.1
B3 | 19.1
MCESICRV-NH2 (linker 2-6 via trans‑butenyl) [R2011] | 12800

Binder | Avg. IC50 [nM]
B4 | 2470
Ac-CESICRVLRYS-NH2 (linker 1-5 via mXylyl) [R2056] | 1.9
B5 | 714
B6 | 151
Ac-[Nva]CESIC[hLys]V-NH2 (linker 2-6 via mXylyl) [R2033] | 8650
Ac-CASFCR[Tle]-NH2 (linker 1-5 via mXylyl) [R2059] | 425
MCETICRVLKYSD-NH2 (linker 2-6 via mXylyl) [R2005] | 1.8
MCESICRV-NH2 (cysteine pairing not given here) [R2007] | 2000
[Nva]CESIC[Phe(3-CH2NH2)]V-NH2 (linker 2-6 via mXylyl) [R2022] | 21000
B7 | 4370
ACESICRV-NH2 (linker 2-6 via mXylyl) [R2025] | 9.5
Ac-CESICRVLK-NH2 (linker 1-5 via mXylyl) [R2038] | 299
MCESICRA-NH2 (linker 2-6 via mXylyl) [R2016] | 3900
Ac-CESICRVLRY-NH2 (linker 1-5 via mXylyl) [R2055] | 2.2
MCASICRV-NH2 (linker 2-6 via mXylyl) [R2024] | 41.9
Ac-MCES[Chg]CRV-NH2 (linker 2-6 via mXylyl) [R2050] | 11
Ac-CAP[Phg]CR[Tle]-NH2 (linker 1-5 via mXylyl) [R2058] | 29.5
Ac-CESICRVLR-NH2 (linker 1-5 via mXylyl) [R2046] | 59.3
[Nva]CESIC[Phe(4-CH2NH2)]V-NH2 (linker 2-6 via mXylyl) [R2021] | 2000
Ac-CAS[Tle]CR[Tle]-NH2 (linker 1-5 via mXylyl) [R2048] | 1400
[Nva]CESI[Pen]RV-NH2 (linker 2-6 via mXylyl) [R2032] | 1030
Ac-[Nva]CESIC[η‑ω‑MeR]V-NH2 (linker 2-6 via mXylyl) [R2054] | 5000
Ac-CAS[Phg]C[Phe(4-CH2NH2)][Tle]-NH2 (linker 1-5 via mXylyl) [R2053] | 5340
[Nva][Pen]ESI[Pen]RV-NH2 (linker 2-6 via mXylyl) [R2034] | > 100000
B8 | 16300
